Our source for the Specific Activity (IU/mg) in the Cell Proliferation Assay values is patent US20060134736A1.

For this test, the target named is full-length human growth hormone receptor (stably transfected in BaF3 cells, cell line Baf-B03 B2B2) (human) (UniProt P10912). Put plainly: cell-based or functional assay.
Chain of UniProt P10912 (P10912 19-638): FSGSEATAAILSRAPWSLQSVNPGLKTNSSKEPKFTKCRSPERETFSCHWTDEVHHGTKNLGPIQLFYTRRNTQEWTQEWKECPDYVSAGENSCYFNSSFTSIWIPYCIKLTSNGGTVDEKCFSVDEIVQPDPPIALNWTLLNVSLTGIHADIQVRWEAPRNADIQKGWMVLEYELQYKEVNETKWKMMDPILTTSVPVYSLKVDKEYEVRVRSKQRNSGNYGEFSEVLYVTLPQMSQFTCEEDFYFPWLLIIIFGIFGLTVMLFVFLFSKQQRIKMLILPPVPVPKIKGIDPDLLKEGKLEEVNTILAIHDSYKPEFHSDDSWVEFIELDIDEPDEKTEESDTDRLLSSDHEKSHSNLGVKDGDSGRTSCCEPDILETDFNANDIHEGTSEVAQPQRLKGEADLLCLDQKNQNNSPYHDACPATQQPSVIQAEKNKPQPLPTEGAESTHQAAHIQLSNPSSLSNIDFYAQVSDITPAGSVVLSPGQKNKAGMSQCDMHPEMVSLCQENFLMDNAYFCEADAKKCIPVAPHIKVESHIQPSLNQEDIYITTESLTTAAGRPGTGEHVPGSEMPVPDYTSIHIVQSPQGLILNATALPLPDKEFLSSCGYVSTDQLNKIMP

On to “Mono-PEG-hGH (one PEG attached to one hGH molecule, Lot No BPM#04-003) (from UniProt P01241 27-217) (ligand)”, for which the Specific Activity (IU/mg) in the Cell Proliferation Assay is 0.46 IU/mg.
To “Di-PEG-hGH (two PEGs attached to one hGH molecule, Lot No BPM#04-004) (from UniProt P01241 27-217) (ligand)” belongs 0.25 IU/mg.
